Measurements as given in patent publication US20090029924.

B1: Recombinant human PC5/6 (protein)
chain: DYDFSRAQSTYFNDPKWPSMWYMHCSDNTHPCQSDMNIEGAWKRGYTGKNIVVTILDDGIERTHPDLMQNYDALASCDVNGNDLDPMPRYDASNENKHGTRCAGEVAAAANNSHCTVGIAFNAKIGGVRMLDGDVTDMVEAKSVSFNPQHVHIYSASWGPDDDGKTVDGPAPLTRQAFENGVRMGRRGLGSVFVWASGNGGRSKDHCSCDGYTNSIYTISISSTAESGKKPWYLEECSSTLATTYSSGESYDKKIITTDLRQRCTDNHTGTSASAPMAAGIIALALEANPFLTWRDVQHVIVRTSRAGHLNANDWKTNAAGFKVSHLYGFGLMDAEAMVMEAEKWTTVPRQHVCVESTDRQIKTIRPNSAVRSIYKASGCSDNPNRHVNYLEHVVVRITITHPRRGDLAIYLTSPSGTRSQLLANRLFDHSMEGFKNWEFMTIHCWGERAAGDWVLEVYDTPSQLRNFKTPGKLKEWSLVLYGTSVQPYSPTNEFPKVERFRYSRVEDPTDDYGTEDYAGPCDPECSEVGCDGPGPDHCNDCLHYYYKLKNNTRICVSSCPPGHYHADKKRCRKCAPNCESCFGSHGDQCMSCKYGYFLNEETNSCVTHCPDGSYQDTKKNLCRKCSENCKTCTEFHNCTECRDGLSLQGSRCSVSCEDGRYFNGQDCQPCHRFCATCAGAGADGCINCTEGYFMEDGRCVQSCSISYYFDHSSENGYKSCKKCDISCLTCNGPGFKNCTSCPSGYLLDLGMCQMGAICKDATEESWAEGGFCMLVKKNNLCQRKVLQQLCCKTCTFQG
B2: Recombinant rat PACE4 (protein)
chain: QARSDSLYFNDPIWSNMWYMHCADKNSRCRSEMNVQAAWKRGYTGKNVVVTILDDGIERNHPDLAPNYDSYASYDVNGNDYDPSPRYDASNENKHGTRCAGEVAASANNSYCIVGIAYNAKIGGIRMLDGDVTDVVEAKSLGIRPNYIDIYSASWGPDDDGKTVDGPGRLAKQAFEYGIKKGRQGLGSIFVWASGNGGREGDHCSCDGYTNSIYTISVSSTTENGHKPWYLEECASTLATTYSSGAFYERKIVTTDLRQRCTDGHTGTSVSAPMVAGIIALALEANNQLTWRDVQHLLVKTSRPAHLKASDWKVNGAGHKVSHLYGFGLVDAEALVLEARKWTAVPSQHMCVATADKRPRSIPVVQVLRTTALTNACADHSDQRVVYLEHVVVRISISHPRRGDLQIHLISPSGTKSQLLAKRLLDFSNEGFTNWEFMTVHCWGEKAEGEWTLEVQDIPSQVRNPEKQGKLKEWSLILYGTAEHPYRTFSSHQSRSRMLELSVPEQEPLKAEGPPPQAETPEEEEEYTGVCHPECGDKGCDGPSADQCLNCVHFSLGNSKTNRKCVSECPLGYFGDTAARRCRRCHKGCETCTGRSPTQCLSCRRGFYHHQETNTCVTLCPAGLYADESQRLCLRCHPSCQKCVDEPEKSTVCKEGFSLARGSCIPDCEPGTYFDSELIRCGECHHTCRTCVGPSREECIHCAKSFHFQDWKCVPACGEGFYPEEMPGLPHKVCRRCDENCLSCEGSSRNCSRCKAGFTQLGTSCITNHTCSNADETFCEMVKSNRLCERKLFIQFCCRTCLLAG
B3: Recombinant human PC4 (protein)
chain: SVVVPTDPWFSKQWYMNSEAQPDLSILQAWSQGLSGQGIVVSVLDDGIEKDHPDLWANYDPLASYDFNDYDPDPQPRYTPSKENRHGTRCAGEVAAMANNGFCGVGVAFNARIGGVRMLDGTITDVIEAQSLSLQPQHIHIYSASWGPEDDGRTVDGPGILTREAFRRGVTKGRGGLGTLFIWASGNGGLHYDNCNCDGYTNSIHTLSVGSTTQQGRVPWYSEACASTLTTTYSSGVATDPQIVTTDLHHGCTDQHTGTSASAPLAAGMIALALEANPFLTWRDMQHLVVRASKPAHLQAEDWRTNGVGRQVSHHYGYGLLDAGLLVDTARTWLPTQPQRKCAVRVQSRPTPILPLIYIRENVSACAGLHNSIRSLEHVQAQLTLSYSRRGDLEISLTSPMGTRSTLVAIRPLDVSTEGYNNWVFMSTHFWDENPQGVWTLGLENKGYYFNTGTLYRYTLLLYGTAEDMTARPTGPQVTSSACVQRDTEGLCQACDGPAYILGQLCLAYCPPRFFNHTRLVTAGPGHTAAPALRVCSSCHASCYTCRGGSPRDCTSCPPSSTLDQQQGSCMGPTTPDSRPRLRAAACPHHRCPAS
B4: Recombinant human PC7 (protein)
chain: SVHFNDPKYPQQWHLNNRRSPGRDINVTGVWERNVTGRGVTVVVVDDGVEHTIQDIAPNYSPEGSYDLNSNDPDPMPHPDVENGNHHGTRCAGEIAAVPNNSFCAVGVAYGSRIAGIRVLDGPLTDSMEAVAFNKHYQINDIYSCSWGPDDDGKTVDGPHQLGKAALQHGVIAGRQGFGSIFVVASGNGGQHNDNCNYDGYANSIYTVTIGAVDEEGRMPFYAEECASMLAVTFSGGDKMLRSIVTTDWDLQKGTGCTEGHTGTSAAAPLAAGMIALMLQVRPCLTWRDVQHIIVFTATRYEDRRAEWVTNEAGFSHSHQHGFGLLNAWRLVNAAKIWTSVPYLASYVSPVLKENKAIPQSPRSLEVLWNVSRMDLEMSGLKTLEHVAVTVSITHPRRGSLELKLFCPSGMMSLIGAPRSMDSDPNGFNDWTFSTVRCWGERARGTYRLVIRDVGDESFQVGILRQWQLTLYGSVWSAVDIRDRQRLLESAMSGKYLHDDFALPCPPGLKIPEEDGYTITPNTLKT

Legend:
[1] = target: recombinant H5 precursor (HA0)
[2] = target: T1, Pseudomonas exotoxin A (PEx), P11439
T1 chain: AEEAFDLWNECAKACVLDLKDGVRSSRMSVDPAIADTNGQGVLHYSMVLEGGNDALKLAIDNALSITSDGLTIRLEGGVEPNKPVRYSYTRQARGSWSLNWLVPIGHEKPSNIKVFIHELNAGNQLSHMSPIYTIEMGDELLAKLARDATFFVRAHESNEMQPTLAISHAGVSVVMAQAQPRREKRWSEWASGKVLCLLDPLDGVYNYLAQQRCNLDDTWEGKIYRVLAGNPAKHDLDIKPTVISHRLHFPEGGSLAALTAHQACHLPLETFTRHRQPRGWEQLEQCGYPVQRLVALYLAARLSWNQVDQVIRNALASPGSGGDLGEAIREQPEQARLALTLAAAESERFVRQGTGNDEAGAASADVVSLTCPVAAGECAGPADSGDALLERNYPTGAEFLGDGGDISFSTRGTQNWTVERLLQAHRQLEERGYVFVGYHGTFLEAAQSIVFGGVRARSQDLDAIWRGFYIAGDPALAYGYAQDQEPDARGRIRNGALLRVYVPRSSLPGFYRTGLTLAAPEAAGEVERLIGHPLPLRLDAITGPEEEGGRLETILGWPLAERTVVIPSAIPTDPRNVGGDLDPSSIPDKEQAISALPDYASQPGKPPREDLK

[3] = target: Anthrax Protective Antigen-83 (PA83), P13423
Anthrax Protective Antigen-83 (PA83), P13423, sequence (P13423 whole entry, looked up): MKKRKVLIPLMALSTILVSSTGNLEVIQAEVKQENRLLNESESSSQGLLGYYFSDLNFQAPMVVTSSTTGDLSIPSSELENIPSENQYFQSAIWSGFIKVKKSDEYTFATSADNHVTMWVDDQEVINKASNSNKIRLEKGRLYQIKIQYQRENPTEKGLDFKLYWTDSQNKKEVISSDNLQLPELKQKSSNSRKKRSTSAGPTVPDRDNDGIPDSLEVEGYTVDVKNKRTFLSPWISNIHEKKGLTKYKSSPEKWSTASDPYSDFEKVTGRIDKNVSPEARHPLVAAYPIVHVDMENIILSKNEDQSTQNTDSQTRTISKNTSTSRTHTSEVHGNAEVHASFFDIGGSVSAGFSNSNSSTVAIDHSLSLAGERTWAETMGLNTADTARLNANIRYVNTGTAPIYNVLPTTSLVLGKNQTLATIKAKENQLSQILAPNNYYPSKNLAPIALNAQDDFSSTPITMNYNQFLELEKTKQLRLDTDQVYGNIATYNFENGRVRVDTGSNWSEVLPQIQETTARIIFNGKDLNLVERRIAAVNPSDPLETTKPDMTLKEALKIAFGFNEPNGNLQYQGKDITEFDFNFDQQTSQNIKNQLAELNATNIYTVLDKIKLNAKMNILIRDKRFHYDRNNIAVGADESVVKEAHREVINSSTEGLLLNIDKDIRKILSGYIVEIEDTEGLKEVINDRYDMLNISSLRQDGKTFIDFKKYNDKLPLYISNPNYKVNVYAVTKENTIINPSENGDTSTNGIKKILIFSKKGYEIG

| Protein | in vitro cleavage of biotin-labeled substrate (Western blot) [1] | in vitro cleavage at pH 5.5 (Western blot) [2] | in vitro cleavage of biotin-labeled substrate (Western blot) [3] |
| --- | --- | --- | --- |
| B1 | efficiently cleaved | readily processed | – |
| B2 | other PCs were less efficient | – | PACE4 and PC7 were less effective |
| B3 | other PCs were less efficient | readily processed | – |
| B4 | other PCs were less efficient | – | PACE4 and PC7 were less effective |
